pKd: −log10 of the molar value.
Tested on: PCBP2
Assay: competition EMSA

poliovirus stem-loop IV RNA
pKd: 7.82
